Key:
CD8+ T cells = test: In vitro immunogenicity: T-cell priming with artificial antigen presenting cells loaded with peptide/MHC complexes and anti-CD28 antibody, multimer readout; assay type: cell-based, human; conditions: for Wells positive [%]: HLA-A*02 restricted peptides, positive wells among evaluable; for in vitro immunogenicity, donors: percentage of positive donors; for in vitro immunogenicity, wells: percentage of positive wells
Protocol: In an aspect, the peptides are pre-screened for immunogenicity before being included in the warehouse. By way of example, and not limitation, the immunogenicity of the peptides included in the warehouse is determined by a method comprising in vitro T-cell priming through repeated stimulations of CD8+ T cells from healthy donors with artificial antigen presenting cells loaded with peptide/MHC complexes and anti-CD28 antibody.
In order to obtain information regarding the immunogenicity of the TUMAPs of the present invention, the inventors performed investigations using an in vitro T-cell priming assay based on repeated stimulations of CD8+ T cells with artificial antigen presenting cells (aAPCs) loaded with peptide/MHC complexes and anti-CD28 antibody.
In order to perform in vitro stimulations by artificial antigen presenting cells loaded with peptide-MHC complex (pMHC) and anti-CD28 antibody, the inventors first isolated CD8+ T cells from fresh HLA-A*02 leukapheresis products via positive selection using CD8 microbeads (Miltenyi Biotec, Bergisch-Gladbach, Germany) of healthy donors obtained from the University clinics Mannheim, Germany, after informed consent.
PBMCs and isolated CD8+ lymphocytes were incubated in T-cell medium (TCM) until use consisting of RPMI-Glutamax (Invitrogen, Karlsruhe, Germany) supplemented with 10% heat inactivated human AB serum (PAN-Biotech, Aidenbach, Germany), 100 U/ml Penicillin/100 μg/ml Streptomycin (Cambrex, Cologne, Germany), 1 mM sodium pyruvate (CC Pro, Oberdorla, Germany), 20 μg/ml Gentamycin (Cambrex). 2.5 ng/ml IL-7 (PromoCell, Heidelberg, Germany) and 10 U/ml IL-2 (Novartis Pharma, Nürnberg, Germany) were also added to the TCM at this step.
Generation of pMHC/anti-CD28 coated beads, T-cell stimulations and readout was performed in a highly defined in vitro system using four different pMHC molecules per stimulation condition and 8 different pMHC molecules per readout condition.
The purified co-stimulatory mouse IgG2a anti human CD28 Ab 9.3 (Jung et al., 1987) was chemically biotinylated using Sulfo-N-hydroxysuccinimidobiotin as recommended by the manufacturer (Perbio, Bonn, Germany). Beads used were 5.6 μm diameter streptavidin coated polystyrene particles (Bangs Laboratories, Illinois, USA).
pMHC used for positive and negative control stimulations were A*0201/MLA-001 (peptide […] (SEQ ID NO. 664) from modified Melan-A/MART-1) and A*0201/DDX5-001 ([…] from DDX5, SEQ ID NO. 665), respectively.
800.000 beads/200 μl were coated in 96-well plates in the presence of 4×12.5 ng different biotin-pMHC, washed and 600 ng biotin anti-CD28 were added subsequently in a volume of 200 μl. Stimulations were initiated in 96-well plates by co-incubating 1×10^6 CD8+ T cells with 2×10^5 washed coated beads in 200 μl TCM supplemented with 5 ng/ml IL-12 (PromoCell) for 3 days at 37° C. Half of the medium was then exchanged by fresh TCM supplemented with 80 U/ml IL-2 and incubating was continued for 4 days at 37° C. This stimulation cycle was performed for a total of three times. For the pMHC multimer readout using 8 different pMHC molecules per condition, a two-dimensional combinatorial coding approach was used as previously described (Andersen et al., 2012) with minor modifications encompassing coupling to 5 different fluorochromes. Finally, multimeric analyses were performed by staining the cells with Live/dead near IR dye (Invitrogen, Karlsruhe, Germany), CD8-FITC antibody clone SK1 (BD, Heidelberg, Germany) and fluorescent pMHC multimers. For analysis, a BD LSRII SORP cytometer equipped with appropriate lasers and filters was used. Peptide specific cells were calculated as percentage of total CD8+ cells. Evaluation of multimeric analysis was done using the FlowJo software (Tree Star, Oreg., USA). In vitro priming of specific multimer+CD8+ lymphocytes was detected by comparing to negative control stimulations. […]

HLA-A*02:01 = HLA-A*02:01 (Homo sapiens, UniProt P04439, D140Y/D185E/D98H/E176V/E277Q/G131W/G231S/I119V/I121R/I166T/I218V/L300P/L318F/N151K/N90K/P208A/P217A/Q86G/Q94H/R138H/R169H/T345S); test: MHC binding assay (UV-ligand exchange, ELISA, peptide exchange yield); conditions: binding of HLA-class I restricted peptides to HLA-A*02:01
Summary of the method: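 Peptide–HLA-A*02:01 complexes made by UV-ligand exchange of a UV-cleavable peptide for the test peptide. Exchange yield measured by ELISA: 100-fold diluted monomers captured on streptavidin, 1 h at 37° C., detected with HRP anti-β2m and TMB, absorbance at 450 nm.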

2 (SLLEADPFL; listed as Homo sapiens) [compound 2]
Wells positive [%] (CD8+ T cells): ″+″ (<20% = +)
Peptide exchange (MHC class I binding score, peptide exchange yield) (HLA-A*02:01): ″+++″ (≥50% = +++)

3 (SLASKLTTL; listed as Homo sapiens) [compound 3]
Wells positive [%] (CD8+ T cells): ″+″ (<20% = +)
Peptide exchange (MHC class I binding score, peptide exchange yield) (HLA-A*02:01): ″++++″ (≥75% = ++++)

8 (FTLGNVVGMYL; listed as Homo sapiens) [compound 8]
Wells positive [%] (CD8+ T cells): ″+″ (<20% = +)
Peptide exchange (MHC class I binding score, peptide exchange yield) (HLA-A*02:01): ″++++″ (≥75% = ++++)

11 (KIFEMLEGV; listed as Homo sapiens) [compound 11]
Wells positive [%] (CD8+ T cells): ″+″ (<20% = +)
Peptide exchange (MHC class I binding score, peptide exchange yield) (HLA-A*02:01): ″+++″ (≥50% = +++)

36 (YVLEDLEVTV; listed as Homo sapiens) [compound 36]
Wells positive [%] (CD8+ T cells): ″+″ (<20% = +)
Peptide exchange (MHC class I binding score, peptide exchange yield) (HLA-A*02:01): ″++″ (≥20% = ++)

38 (FLLEDDIHVS; listed as Homo sapiens) [compound 38]
Wells positive [%] (CD8+ T cells): ″+″ (<20% = +)
Peptide exchange (MHC class I binding score, peptide exchange yield) (HLA-A*02:01): ″+++″ (≥50% = +++)

48 (ALAELYEDEV; listed as Homo sapiens) [compound 48]
Wells positive [%] (CD8+ T cells): ″+″ (<20% = +)
Peptide exchange (MHC class I binding score, peptide exchange yield) (HLA-A*02:01): ″+++″ (≥50% = +++)

56 (KLYEGIPVLL; listed as Homo sapiens) [compound 56]
Wells positive [%] (CD8+ T cells): ″+″ (<20% = +)
Peptide exchange (MHC class I binding score, peptide exchange yield) (HLA-A*02:01): ″++++″ (≥75% = ++++)

79 (SLFIGEKAVLL; listed as Homo sapiens) [compound 79]
Wells positive [%] (CD8+ T cells): ″+″ (<20% = +)
Peptide exchange (MHC class I binding score, peptide exchange yield) (HLA-A*02:01): ″+++″ (≥50% = +++)

113 (GLLPTPLFGV; listed as Homo sapiens) [compound 113]
Wells positive [%] (CD8+ T cells): ″+″ (<20% = +)
Peptide exchange (MHC class I binding score, peptide exchange yield) (HLA-A*02:01): ″+++″ (≥50% = +++)

118 (KLIDNNINV; listed as Homo sapiens) [compound 118]
Wells positive [%] (CD8+ T cells): ″+″ (<20% = +)
Peptide exchange (MHC class I binding score, peptide exchange yield) (HLA-A*02:01): ″+++″ (≥50% = +++)

141 (YLDFSNNRL; listed as Homo sapiens) [compound 141]
Wells positive [%] (CD8+ T cells): ″+″ (<20% = +)
Peptide exchange (MHC class I binding score, peptide exchange yield) (HLA-A*02:01): ″++″ (≥20% = ++)

143 (LLLDITPEI; listed as Homo sapiens) [compound 143]
Wells positive [%] (CD8+ T cells): ″+″ (<20% = +)
Peptide exchange (MHC class I binding score, peptide exchange yield) (HLA-A*02:01): ″++++″ (≥75% = ++++)

150 (RLWEEGEELEL; listed as Homo sapiens) [compound 150]
Wells positive [%] (CD8+ T cells): ″+″ (<20% = +)
Peptide exchange (MHC class I binding score, peptide exchange yield) (HLA-A*02:01): ″+++″ (≥50% = +++)

199 (ALQDVPLSSV; listed as Homo sapiens) [compound 199]
Wells positive [%] (CD8+ T cells): ″+″ (<20% = +)
Peptide exchange (MHC class I binding score, peptide exchange yield) (HLA-A*02:01): ″+++″ (≥50% = +++)

247 (VLLPNDLLEKV; listed as Homo sapiens) [compound 247]
Wells positive [%] (CD8+ T cells): ″+″ (<20% = +)
Peptide exchange (MHC class I binding score, peptide exchange yield) (HLA-A*02:01): ″+++″ (≥50% = +++)

604 (SILDRDDIFV; listed as Homo sapiens) [compound 604]
Peptide exchange (MHC class I binding score, peptide exchange yield) (HLA-A*02:01): ″+++″ (≥50% = +++)

605 (KLYEAVPQL; listed as Homo sapiens) [compound 605]
Peptide exchange (MHC class I binding score, peptide exchange yield) (HLA-A*02:01): ″+++″ (≥50% = +++)

606 (ALWETEVYI; listed as Homo sapiens) [compound 606]
Peptide exchange (MHC class I binding score, peptide exchange yield) (HLA-A*02:01): ″+++″ (≥50% = +++)

607 (RLYSGISGLEL; listed as Homo sapiens) [compound 607]
Peptide exchange (MHC class I binding score, peptide exchange yield) (HLA-A*02:01): ″+++″ (≥50% = +++)

608 (SLLSVSHAL; listed as Homo sapiens) [compound 608]
Peptide exchange (MHC class I binding score, peptide exchange yield) (HLA-A*02:01): ″+++″ (≥50% = +++)

609 (ALWKQLLEL; listed as Homo sapiens) [compound 609]
Peptide exchange (MHC class I binding score, peptide exchange yield) (HLA-A*02:01): ″+++″ (≥50% = +++)

610 (LLAPTPYIIGV; listed as Homo sapiens) [compound 610]
Peptide exchange (MHC class I binding score, peptide exchange yield) (HLA-A*02:01): ″+++″ (≥50% = +++)

611 (YLLDDGTLVV; listed as Homo sapiens) [compound 611]
Peptide exchange (MHC class I binding score, peptide exchange yield) (HLA-A*02:01): ″++++″ (≥75% = ++++)

612 (YLYNEGLSV; listed as Homo sapiens) [compound 612]
Peptide exchange (MHC class I binding score, peptide exchange yield) (HLA-A*02:01): ″+++″ (≥50% = +++)

613 (RLLPPGAVVAV; listed as Homo sapiens) [compound 613]
Peptide exchange (MHC class I binding score, peptide exchange yield) (HLA-A*02:01): ″+++″ (≥50% = +++)

614 (LLLPDQPPYHL; listed as Homo sapiens) [compound 614]
Peptide exchange (MHC class I binding score, peptide exchange yield) (HLA-A*02:01): ″+++″ (≥50% = +++)

615 (VLPPDTDPA; listed as Homo sapiens) [compound 615]
Peptide exchange (MHC class I binding score, peptide exchange yield) (HLA-A*02:01): ″++″ (≥20% = ++)

616 (VLIDEVESL; listed as Homo sapiens) [compound 616]
Peptide exchange (MHC class I binding score, peptide exchange yield) (HLA-A*02:01): ″+++″ (≥50% = +++)

617 (ALMYESEKVGV; listed as Homo sapiens) [compound 617]
Peptide exchange (MHC class I binding score, peptide exchange yield) (HLA-A*02:01): ″+++″ (≥50% = +++)

618 (VLFDSESIGIYV; listed as Homo sapiens) [compound 618]
Peptide exchange (MHC class I binding score, peptide exchange yield) (HLA-A*02:01): ″+++″ (≥50% = +++)

619 (ALQDRVPLA; listed as Homo sapiens) [compound 619]
Peptide exchange (MHC class I binding score, peptide exchange yield) (HLA-A*02:01): ″+++″ (≥50% = +++)

620 (KLLNKIYEA; listed as Homo sapiens) [compound 620]
Peptide exchange (MHC class I binding score, peptide exchange yield) (HLA-A*02:01): ″++++″ (≥75% = ++++)

621 (VLMDRLPSLL; listed as Homo sapiens) [compound 621]
Peptide exchange (MHC class I binding score, peptide exchange yield) (HLA-A*02:01): ″++++″ (≥75% = ++++)

622 (RLLGEEVVRVLQA; listed as Homo sapiens) [compound 622]
Peptide exchange (MHC class I binding score, peptide exchange yield) (HLA-A*02:01): ″+++″ (≥50% = +++)

623 (YLVEDIQHI; listed as Homo sapiens) [compound 623]
Peptide exchange (MHC class I binding score, peptide exchange yield) (HLA-A*02:01): ″+++″ (≥50% = +++)

635 (SLDSTLHAV; listed as Homo sapiens) [compound 635]
Peptide exchange (MHC class I binding score, peptide exchange yield) (HLA-A*02:01): ″+++″ (≥50% = +++)

648 (LLWGNAIFL; listed as Homo sapiens) [compound 648]
in vitro immunogenicity, donors (CD8+ T cells): +++ (50%-69% = +++)
in vitro immunogenicity, wells (CD8+ T cells): ++ (20%-49% = ++)

652 (TLWYRAPEV; listed as Homo sapiens) [compound 652]
in vitro immunogenicity, donors (CD8+ T cells): ++++ (> = 70% = ++++)
in vitro immunogenicity, wells (CD8+ T cells): +++ (50%-69% = +++)

659 (ILFPDIIARA; listed as Homo sapiens) [compound 659]
in vitro immunogenicity, donors (CD8+ T cells): +++ (50%-69% = +++)
in vitro immunogenicity, wells (CD8+ T cells): + (<20% = +)

662 (KIQEILTQV; listed as Homo sapiens) [compound 662]
in vitro immunogenicity, donors (CD8+ T cells): +++ (50%-69% = +++)
in vitro immunogenicity, wells (CD8+ T cells): + (<20% = +)

663 (KIQEMQHFL; listed as Homo sapiens) [compound 663]
in vitro immunogenicity, donors (CD8+ T cells): +++ (50%-69% = +++)
in vitro immunogenicity, wells (CD8+ T cells): + (<20% = +)

From patent US10227388B2, “Peptides and combination of peptides for use in immunotherapy against non-small cell lung cancer and other cancers” (immatics biotechnologies GmbH, priority 2015, dated 2019)
